B1: ALDH8A1 (parent)
chain: FTGSQPTAERITQLSAPHCKKLSL

Variants of: B1
Test: protein stability index of a GFP-peptide fusion (GPS, HEK-293T) (PSI 1-6); higher = more stable
Conditions: c terminus: a fixed tail appended
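Note: lentivirally expressed fusions sorted by FACS into six bins by GFP to DsRed ratio, PSI derived from sequencing read proportions per bin multiplied by bin number.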

Variant	protein stability index
G3W	2.66
G3Y	2.54
S4A	2.56
S4C	2.31
S4D	3.06
S4E	3.18
S4F	2.03
S4G	1.7
S4H	2.59
S4I	2.36
S4K	2.6
S4L	2.1
S4M	1.98
S4N	2.21
S4P	2.67
S4Q	2.02
S4R	1.62
S4T	2.69
S4V	2.75
S4W	3.16
S4Y	2.22
Q5A	2.08
Q5C	2.45
Q5D	2.19

Variant	protein stability index
Q5E	2.57
Q5F	1.68
Q5G	2.15
Q5H	2.14
Q5I	2.39
Q5K	2.06
Q5L	1.65
Q5M	2.19
Q5N	2.33
Q5P	2.99
Q5R	2.39
Q5S	3.01
Q5T	2.24
Q5V	2.38
Q5W	4.02
Q5Y	2.36
P6A	1.94
P6C	2.42
P6D	2.43
P6E	2.79
P6F	1.9
P6G	1.96
P6H	2.25
P6I	2.07

Variant	protein stability index
P6K	2.7
P6L	2.04
P6M	2.56
P6N	2.71
P6Q	2.38
P6R	2.15
P6S	2.1
P6T	1.77
P6V	2.07
P6W	3.07
P6Y	1.92
T7A	3.05
T7C	2
T7D	2.98
T7E	2.62
T7F	2.99
T7G	2.11
T7H	2.02
T7I	2.39
T7K	2.32
T7L	2.27
T7M	2.12
T7N	2.83
T7P	2.67

Variant	protein stability index
T7Q	2.86
T7R	2.55
T7S	2.08
T7V	2
T7W	1.2
T7Y	2.61
A8C	2.09
A8D	2.16
A8E	2.6
A8F	1.42
A8G	2.95
A8H	2.61
A8I	2.46
A8K	1.8
A8L	2.42
A8M	2.58
A8N	2.09
A8P	2.3
A8Q	2.4
A8R	2.6
A8S	1.9
A8T	2.24
A8V	2.45
A8W	3.71

Variant	protein stability index
A8Y	2.27
E9A	1.96
E9C	2.14
E9D	2.52
E9F	2.74
E9G	2.1
E9H	2.15
E9I	2.23
E9K	2.06
E9L	3.09
E9M	1.37
E9N	1.99
E9P	2.05
E9Q	2.09
E9R	1.96
E9S	1.86
E9T	1.87
E9V	1.46
E9W	3.33
E9Y	3.14
R10A	2.31
R10C	1.94
R10D	2.31
R10E	2.51

Variant	protein stability index
R10F	1.9
R10G	2.28
R10H	2.3
R10I	1.92
R10K	1.81
R10L	2.11
R10M	1.97
R10N	2.6
R10P	2.7
R10Q	2.17
R10S	2.42
R10T	2.39
R10V	1.63
R10W	1.93
R10Y	1.65
I11A	2.48
I11C	2.6
I11D	3.39
I11E	2.73
I11F	2.9
I11G	2.09
I11H	2.96
I11K	1.93
I11L	2.15

Variant	protein stability index
I11M	2.61
I11N	2.4
I11P	3.32
I11Q	2.49
I11R	2.81
I11S	2.22
I11T	2.84
I11V	2.44
I11W	2.08
I11Y	2.18
T12A	2.21
T12C	1.83
T12D	2.32
T12E	3.25
T12F	2.86
T12G	2.27
T12H	1.84
T12I	1.51
T12K	2.3
T12L	1.79
T12M	2
T12N	2.25
T12P	2.32
T12Q	2.36

Variant	protein stability index
T12R	2.89
T12S	2.79
T12V	2.15
T12W	3.11
T12Y	2.69
Q13A	2.31
Q13C	2
Q13D	2.61
Q13E	2.5
Q13F	2.94
Q13G	2.31
Q13H	2.24
Q13I	1.35
Q13K	2.48
Q13L	2.08
Q13M	2.03
Q13N	2.2
Q13P	2.16
Q13R	1.91
Q13S	2.12
Q13T	2.3
Q13V	1.69
Q13W	2.67
Q13Y	1.97

Variant	protein stability index
L14A	2.26
L14C	1.79
L14D	3.04
L14E	3.18
L14F	1.79
L14G	2.56
L14H	2.58
L14I	2.53
L14K	2.73
L14M	1.86
L14N	2.4
L14P	2.77
L14Q	2.57
L14R	2.37
L14S	2.76
L14T	2.87
L14V	1.9
L14W	2.2
L14Y	2.39
S15A	2.39
S15C	2.34
S15D	2.18
S15E	2.37
S15F	3.03

Variant	protein stability index
S15G	2.5
S15H	1.85
S15I	2.28
S15K	1.84
S15L	2.87
S15M	2.13
S15N	1.91
S15P	2.32
S15Q	2.09
S15R	1.71
S15T	2.25
S15V	2.36
S15W	2.39
S15Y	3.69
A16C	1.55
A16D	2.52
A16E	2.26
A16F	2.33
A16G	2.5
A16H	2.13
A16I	2.25
A16K	2.03
A16L	2.17
A16M	1.91

Variant	protein stability index
A16N	2.58
A16P	2.39
A16Q	2.1
A16R	2.43
A16S	2.17
A16T	2.63
A16V	2.27
A16W	1.45
A16Y	2.05
P17A	2.49
P17C	2.13
P17D	2.8
P17E	2.77
P17F	1.85
P17G	2.25
P17H	2.34
P17I	2.38
P17K	2.12
P17L	1.78
P17M	2.04
P17N	2.55
P17Q	2.48
P17R	2.49
P17S	2.18

Variant	protein stability index
P17T	2.24
P17V	1.96
P17W	2.46
P17Y	2.05
H18A	2.05
H18C	1.94
H18D	3.24
H18E	1.78
H18F	2.25
H18G	2.05
H18I	2.55
H18K	2.34
H18L	2.46
H18M	2.24
H18N	2.11
H18P	2.93
H18Q	2.29
H18R	2.55
H18S	2.74
H18T	2.31
H18V	3
H18W	1.85
H18Y	2.14
C19A	2.35

Variant	protein stability index
C19D	2.73
C19E	2.79
C19F	2.91
C19G	2.58
C19H	2.33
C19I	1.66
C19K	2.75
C19L	1.91
C19M	1.96
C19N	2.16
C19P	2.06
C19Q	2.79
C19R	2.45
C19S	1.96
C19T	2.45
C19V	2.04
C19W	1.6
C19Y	1.68
K20A	2.2
K20C	2.09
K20D	2.57
K20E	2.75
K20F	1.52
K20G	2.85

Variant	protein stability index
K20H	1.88
K20I	1.61
K20L	1.84
K20M	1.84
K20N	2.53
K20P	2.3
K20Q	2.8
K20R	1.78
K20S	2.26
K20T	2.19
K20V	1.93
K20W	1.61
K20Y	2.5
K21A	2.56
K21C	1.59
K21D	2.89
K21E	2.65
K21F	1.9
K21G	2.01
K21H	2.1
K21I	1.71
K21L	1.84

From the supplement of paper PMC10567573
